Consider 45 molecules from patent US20240092836A1 (GENEFRONTIER, published 2024).

Assay [1] has as its target T1, Orencia.
T1 sequence (chain, INN chains, looked up, looked up): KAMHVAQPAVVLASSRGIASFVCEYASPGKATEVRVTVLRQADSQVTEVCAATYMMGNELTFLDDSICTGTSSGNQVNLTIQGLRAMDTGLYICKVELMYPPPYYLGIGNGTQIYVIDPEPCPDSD
Nature of the assay: ELISA, MBP fusion in E. coli lysate on Orencia. Here is the method:
(§1) 10 μL of E. coli cultured medium was added with 90 μL of PBS and 40 μL of lysis reagent (20 μL BugBuster Protein Extraction Reagent (Novagen), 20 μL Lysozyme solution 2.5 mg/mL) to lyse E. coli cells for 1 hour at room temperature. […] In parallel, antigen protein was immobilized overnight at 4° C. in 384-well plates at 100 ng/20 μL per well, and each well was washed twice with 100 μL/well of TBST, added with 100 μL/well of 5% skim milk solution (TBST) for blocking for 1 hour at room temperature, and washed twice with 100 μL/well of TBST to obtain antigen-immobilized plates. 20 μL/well of blocking-treated E. coli extract was added to the antigen-immobilized plates and gently stirred at room temperature using a plate mixer. […] The plates were washed 5 times with 100 μL/well of TBST, and binding of cyclic peptides to the antigen was detected by 20 μL/well of chromogenic substrate (0.4 mg/mL 3,3′,5,5′-Tetramethyl-benzidine, 0.01% hydrogen peroxide). After 15 minutes of reaction at room temperature, the reaction was stopped with 20 μL/well of 2N HCl, and absorbance at 450 nm was measured using a plate reader (infinite F200: TECAN) (Table 5).
(§2) An Error-Prone Library was prepared based on H12SSI-Ctla4-3-02, and Affinity Maturation selection experiments were performed. The cyclic peptide genes obtained in each round were subcloned, 94 single colonies were cultured in 96-well plates, and the CTLA-4 binding activity of each MBP-fused cyclic peptide was examined by ELISA.

For assay [2], the target named is T1, Orencia. Nature of the assay: ELISA, signal on Orencia over SA. Here is the method: as §1, §2
Background: An ELISA detects its analyte on a solid surface through an enzyme-linked reagent.

GGCRHPFLPIVSRHFCRG (peptide, not shown: large carriers; small tags and cut ends, MBP fusion; also called #11) [C4-302mat-3-1-45]: the “ELISA A450” value with Orencia [1] is 0.689. Also, the “S/N(SA)” value with Orencia [2] is 11.2.
Take GGCMHPFLPVVSHHFCGG (peptide, not shown: large carriers; small tags and cut ends, MBP fusion) [C4-302mat-1-1-24]: in the assay with Orencia [1], the “ELISA A450” value was found to be 0.78. Further, the “S/N(SA)” value with Orencia [2] amounted to 14.7.
For GGCMHPFLQVVSHHFCGG (peptide, not shown: large carriers; small tags and cut ends, MBP fusion; also called #27) [C4-302mat-2-100-4] the same measures were 0.545 and 9.3.
The like results for GGCMHPFLPIVSHHFCGS (peptide, not shown: large carriers; small tags and cut ends, MBP fusion; also called #18) [C4-302mat-2-100-27] were, in that order, 1.29 and 25.2.
As to GGCMHPFLPVVSHHFCGA (peptide, not shown: large carriers; small tags and cut ends, MBP fusion) [C4-302mat-3-1-48], the “ELISA A450” value with Orencia [1] was found to be 0.903. In addition, the “S/N(SA)” value in the assay with Orencia [2] is 14.6.
For GGCMHPFLRIVSQHFCRR (peptide, not shown: large carriers; small tags and cut ends, MBP fusion; also called #35) [C4-302mat-2-1-24] the same measures were 0.14 and 2.4.
The like results for GGCMHPFLRVVSHHFCGG (peptide, not shown: large carriers; small tags and cut ends, MBP fusion; also called #32) [C4-302mat-1-1-37] were, in that order, 0.665 and 14.2.

B1: C4-302mat-3-100-44 (peptide, not shown: large carriers; small tags and cut ends)
chain: GGCLHPFLPIVSHHFCGR
notes: MBP fusion; also called clone #10; No. #10
B1: in the assay with Orencia [1], the “ELISA A450” value is 1.14. Further, the “S/N(SA)” value with Orencia [2] came to 18.5.
For GDCKHPYLLTVSHHFCGR (peptide, not shown: large carriers; small tags and cut ends, MBP fusion; also called #42) [C4-302mat-3-1-25], the “ELISA A450” value in the assay with Orencia [1] is 0.264. Further, the “S/N(SA)” value with Orencia [2] stood at 4.3.
Consider GGCMHPFLPIASLHFCGR (peptide, not shown: large carriers; small tags and cut ends, MBP fusion; also called #20) [C4-302mat-3-1-23], for which the “ELISA A450” value in the assay with Orencia [1] was 1.21. In addition, the “S/N(SA)” value with Orencia [2] worked out at 19.7.
GGCMHPYLPVISHHFCGR (peptide, not shown: large carriers; small tags and cut ends, MBP fusion; also called #16) [C4-302mat-3-100-12]: the “ELISA A450” value with Orencia [1] was determined as 1.18. Also, the “S/N(SA)” value in the assay with Orencia [2] was 19.4.
The like results for GGCMHPFLPVVSHHFCGR (peptide, not shown: large carriers; small tags and cut ends, MBP fusion) [C4-302mat-3-100-37] were, in that order, 1.17 and 18.
The like results for GGCMHPFLPVASHHFCGG (peptide, not shown: large carriers; small tags and cut ends, MBP fusion) [C4-302mat-1-1-35] were, in that order, 0.534 and 11.2.
As for GSCMHPFLLVASHHFCRG (peptide, not shown: large carriers; small tags and cut ends, MBP fusion; also called #38) [C4-302mat-2-100-33], in the assay with Orencia [1], the “ELISA A450” value stood at 0.117. The “S/N(SA)” value with Orencia [2] was determined as 2.3.
For GGCMHPYLLVVSHHFCGR (peptide, not shown: large carriers; small tags and cut ends, MBP fusion; also called #40) [C4-302mat-2-100-24] the same measures were 0.227 and 4.
As to GGCMHPFLPVTSHHFCGG (peptide, not shown: large carriers; small tags and cut ends, MBP fusion; also called #17) [C4-302mat-2-1-3], in the assay with Orencia [1], the “ELISA A450” value came out at 0.802. Moreover, in the assay with Orencia [2], the “S/N(SA)” value came to 14.8.
For GGCMHPYLLVVSRHFCGR (peptide, not shown: large carriers; small tags and cut ends, MBP fusion; also called #41) [C4-302mat-3-1-15] the same measures were 0.351 and 5.4.
As for GGCMHPFLRVVSHHFCGR (peptide, not shown: large carriers; small tags and cut ends, MBP fusion; also called #33) [C4-302mat-3-1-14], the “ELISA A450” value with Orencia [1] was 0.985. In the assay with Orencia [2], the “S/N(SA)” value came out at 15.5.
With GGCVHPFLQVVSHHFCGG (peptide, not shown: large carriers; small tags and cut ends, MBP fusion; also called #29) [C4-302mat-1-100-23], the “ELISA A450” value with Orencia [1] was found to be 0.25. The “S/N(SA)” value in the assay with Orencia [2] turned out to be 5.4.
Consider GGCMHPFLLVVSRHFCGR (peptide, not shown: large carriers; small tags and cut ends, MBP fusion) [C4-302mat-2-100-40], for which, in the assay with Orencia [1], the “ELISA A450” value turned out to be 0.204. Also, the “S/N(SA)” value in the assay with Orencia [2] was 3.9.

B2: H12SSI-Ctla4-3-02 (MBP fusion) (peptide, not shown: large carriers; small tags and cut ends)
chain: GGCMHPFLLVVSHHFCGG
notes: MBP fusion; also called original clone; Original
Consider B2, for which, in the assay with Orencia [1], the “ELISA A450” value worked out at 0.228. Further, in the assay with Orencia [2], the “S/N(SA)” value is 4.3.
For GGCMHPFLKIASHHFCGG (peptide, not shown: large carriers; small tags and cut ends, MBP fusion; also called #36) [C4-302mat-3-1-8], the “ELISA A450” value with Orencia [1] is 0.555. In the assay with Orencia [2], the “S/N(SA)” value is 8.2.
For GGCKHPFLLIVSHHFCGR (peptide, not shown: large carriers; small tags and cut ends, MBP fusion; also called #45) [C4-302mat-3-100-39] the same measures were 0.136 and 2.3.
The like results for GGCMHPYLPVISHHFCGG (peptide, not shown: large carriers; small tags and cut ends, MBP fusion; also called #15) [C4-302mat-2-1-27] were, in that order, 0.785 and 13.7.
Take GGCMHPYLQVVSHHFCGR (peptide, not shown: large carriers; small tags and cut ends, MBP fusion) [C4-302mat-3-1-2]: in the assay with Orencia [1], the “ELISA A450” value came out at 1.45. For the same molecule, the “S/N(SA)” value with Orencia [2] came to 21.9.
For GGCMHPFLQVVSHHFCGS (peptide, not shown: large carriers; small tags and cut ends, MBP fusion; also called #26) [C4-302mat-2-1-35] the same measures were 0.904 and 17.9.
With GGCLHPFLPVVSHHFCGD (peptide, not shown: large carriers; small tags and cut ends, MBP fusion; also called #8) [C4-302mat-2-1-2], in the assay with Orencia [1], the “ELISA A450” value came to 1.2. Besides, in the assay with Orencia [2], the “S/N(SA)” value came to 23.5.
For GGCMHPFLPVASHHFCGR (peptide, not shown: large carriers; small tags and cut ends, MBP fusion; also called #6) [C4-302mat-3-1-22] the same measures were 1.11 and 18.9.
Consider GGCMHPFLPVASHHFCAG (peptide, not shown: large carriers; small tags and cut ends, MBP fusion) [C4-302mat-3-100-27], for which, in the assay with Orencia [1], the “ELISA A450” value came to 0.927. Further, in the assay with Orencia [2], the “S/N(SA)” value was 16.6.
The like results for GGCKHPFLPVVSHHFCGG (peptide, not shown: large carriers; small tags and cut ends, MBP fusion; also called #13) [C4-302mat-3-100-9] were, in that order, 0.779 and 14.4.
For GGCIHPFLQVVSHHFCGG (peptide, not shown: large carriers; small tags and cut ends, MBP fusion; also called #28) [C4-302mat-1-1-21], the “ELISA A450” value in the assay with Orencia [1] was determined as 0.155. The “S/N(SA)” value in the assay with Orencia [2] amounted to 2.7.
On to GGCLHPFLPLVSHHFCGG (peptide, not shown: large carriers; small tags and cut ends, MBP fusion; also called #9) [C4-302mat-2-1-38], for which the “ELISA A450” value with Orencia [1] came out at 0.807. Also, the “S/N(SA)” value with Orencia [2] was 16.4.
In the case of GGCMHPFLPVVSHHFCRG (peptide, not shown: large carriers; small tags and cut ends, MBP fusion) [C4-302mat-2-100-18], the “ELISA A450” value in the assay with Orencia [1] worked out at 0.857. Also, the “S/N(SA)” value with Orencia [2] is 16.1.
For GGCMHPFLQTVSHHFCGG (peptide, not shown: large carriers; small tags and cut ends, MBP fusion; also called #22) [C4-302mat-3-1-35] the same measures were 0.299 and 5.3.
On to GGCKHPFLRVVSHHFCRR (peptide, not shown: large carriers; small tags and cut ends, MBP fusion; also called #34) [C4-302mat-2-1-12], for which, in the assay with Orencia [1], the “ELISA A450” value came out at 0.51. Further, the “S/N(SA)” value with Orencia [2] stood at 8.5.
For GGCMHPFLQVASHHFCGG (peptide, not shown: large carriers; small tags and cut ends, MBP fusion) [C4-302mat-2-1-40] the same measures were 0.366 and 6.9.
For GGCMHPFLPVVSRHFCGR (peptide, not shown: large carriers; small tags and cut ends, MBP fusion; also called #25) [C4-302mat-3-1-12] the same measures were 0.95 and 17.9.
For the molecule GGCKHPYLPVASHHFCRG (peptide, not shown: large carriers; small tags and cut ends, MBP fusion; also called #14) [C4-302mat-3-1-10], the “ELISA A450” value in the assay with Orencia [1] was found to be 0.586. The “S/N(SA)” value with Orencia [2] was 10.3.
In the case of GGCMHPFLLVASHHFCGV (peptide, not shown: large carriers; small tags and cut ends, MBP fusion) [C4-302mat-2-1-37], the “ELISA A450” value with Orencia [1] was 0.12. Further, the “S/N(SA)” value with Orencia [2] stood at 2.3.
For GGCMHPFLPILSHHFCAG (peptide, not shown: large carriers; small tags and cut ends, MBP fusion; also called #21) [C4-302mat-3-1-32] the same measures were 0.656 and 11.4.
As to GSCMHPFLPVASRHFCGR (peptide, not shown: large carriers; small tags and cut ends, MBP fusion; also called #23) [C4-302mat-3-1-31], in the assay with Orencia [1], the “ELISA A450” value amounted to 0.868. In the assay with Orencia [2], the “S/N(SA)” value turned out to be 13.2.
For GGCMHPFLPVVSRHFCGG (peptide, not shown: large carriers; small tags and cut ends, MBP fusion; also called #24) [C4-302mat-3-1-5] the same measures were 0.438 and 5.9.
Take GGCMHPYLLVASHHFCER (peptide, not shown: large carriers; small tags and cut ends, MBP fusion; also called #39) [C4-302mat-3-1-9]: the “ELISA A450” value with Orencia [1] was 0.574. In the assay with Orencia [2], the “S/N(SA)” value stood at 8.8.
For the molecule GGCVHPFLPVVSHHFCRG (peptide, not shown: large carriers; small tags and cut ends, MBP fusion; also called #12) [C4-302mat-3-100-20], the “ELISA A450” value with Orencia [1] was determined as 0.221. In the assay with Orencia [2], the “S/N(SA)” value was 3.7.
The like results for GGCMHPFLLTVSRHFCGG (peptide, not shown: large carriers; small tags and cut ends, MBP fusion; also called #44) [C4-302mat-3-1-11] were, in that order, 0.412 and 8.1.
